According to patent US8034579B2, “Proteins with enhanced functionality and methods of making novel proteins using circular permutation” (Emory University, priority 2005, dated 2011):

Key:
[1] = substrate: CCCC(=O)Oc1ccc([N+](=O)[O-])cc1; experiment: Initial rate of hydrolysis of p-nitrophenol butyrate (pNB), wild type; type: biochemical, Candida antarctica; conditions: other: wild type, 50 mM K-phosphate pH 7.5, room temperature
Source text: (§1) Kinetic analysis of protein variants: To examine the impact of circular permutation on catalysis eleven functional CALB variants with termini in or near the active site were selected for detailed kinetic characterization. The locations of the termini in these variants are shown on the structure of CALB in FIG. 6; the numbers correspond to the amino acid residue of the new terminus. Following overexpression in P. pastoris, the selected circularly permuted proteins were purified to homogeneity. The catalytic performance of these variants was determined in activity assays with two standard lipase substrates, measuring the initial rates of hydrolysis of the chromogenic substrate p-nitrophenol butyrate (pNB) and the fluorogenic substrate 6,8-difluoro-4-methylumbelliferyl (DiFMU) octanoate.
(§2) The overexpression and purification of wild type CALB was performed as described in Rotticci-Mulder, J. C. et al., Protein Expr Purif 2001, 21, (3), 386-92, which is hereby incorporated by reference. The same protocol was adopted for the isolation of circular permutation variants of CALB. Briefly, pPIC9-ca/B was linearized by SacI digestion and electroporated into P. pastoris cells (GS115). […]
(§3) Lipase activity was determined by measuring the initial hydrolysis rate of p-NB and DiFMU octanoate at room temperature on a Synergy-HT microtiterplate reader (Bio-Tek Instruments, Winooski, Vt.). Stock solutions of p-NB (200 mM) and DiFMU octanoate (3 mM) were prepared in DMSO. p-NB hydrolysis over a substrate range of 0-1.6 mM was measured in 50 mM K-phosphate buffer (pH 7.5) at 400 nm ( ? for p-NB=13260 M^1 cm^−1) as described in Bender, M. L. et al., J Am Chem Soc 1968, 90, (1), 201-7, which is hereby incorporated by reference. The rate of DiFMU octanoate hydrolysis was determined by measuring the DiFMU formation over a substrate range of 0-12 μM in 50 mM K-phosphate buffer (pH 7.0) at an excitation/emission wavelength 360/460 nm. Kinetic constants were calculated by fitting the initial rates to the Michaelis-Menten equation using the Origin® software (version 7; OriginLab Corporation).

[2] = substrate: CCCCCCCC(=O)Oc1c(F)cc2c(C)cc(=O)oc2c1F; experiment: Initial rate of hydrolysis of DiFMU octanoate, wild type; type: biochemical, Candida antarctica; conditions: other: wild type, 50 mM K-phosphate pH 7.0, room temperature
Source text: as §1, §2, §3

B1: Candida antarctica lipase B (CALB), wild type, SEQ ID NO: 2, L1/P317 (Moesziomyces antarcticus) (protein)
chain: LPSGSDPAFSQPKSVLDAGLTCQGASPSSVSKPILLVPGTGTTGPQSFDSNWIPLSAQLGYTPCWISPPPFMLNDTQVNTEYMVNAITTLYAGSGNNKLPVLTWSQGGLVAQWGLTFFPSIRSKVDRLMAFAPDYKGTVLAGPLDALAVSAPSVWQQTTGSALTTALRNAGGLTQIVPTTNLYSATDEIVQPQVSNSPLDSSYLFNGKNVQAQAVCGPLFVIDHAGSLTSQFSYVVGRSALRSTTGQARSADYGITDCNPLPANDLTPEQKVAAAALLAPAAAAIVAGPKQNCEPDLMPYARPFAVGKRTCSGIVTP
B1 was tested, and the Km [1] was 410 ± 40 µM, the kcat [1] was 5.08 ± 0.167 s⁻¹ and the kcat/Km [1] was 12300 M⁻¹ s⁻¹. The Km [2] was 2.6 ± 0.3 µM, the kcat [2] was 0.033 ± 0.0017 s⁻¹ and the kcat/Km [2] was 13000 M⁻¹ s⁻¹.
